These results are taken from article PMC3480639.

In one assay the target is H2B:mRFP (UniProt P06899). The experiment in a line: FRET or BRET; FLIM-FRET in cells in interphase; GFP fusion as donor, mRFP or dsRed fusion as acceptor; multiphoton excitation at 890 nm; at least 20 cells per condition.
For a further assay, the target named is histone H2B. Briefly: TrAP-tag pull-down and mass spectrometry. The conditions noted are these: DT40 cells blocked in mitosis with colcemid, then forced to exit from mitosis by addition of roscovitine; parent: 12.
The target of a further assay is histone H3. Briefly: TrAP-tag pull-down and mass spectrometry. As to conditions: DT40 cells blocked in mitosis with colcemid, then forced to exit from mitosis by addition of roscovitine; parent: 17.
Assay [1] deals with Importin β (endogenous, DT40). The experiment in a line: TrAP-tag pull-down and mass spectrometry. As to conditions: DT40 cells blocked in mitosis with colcemid, then forced to exit from mitosis by addition of roscovitine; parent: 15.
The target in assay [2] is NUP153 (endogenous, DT40). Briefly: TrAP-tag pull-down and mass spectrometry. As to conditions: DT40 cells blocked in mitosis with colcemid, then forced to exit from mitosis by addition of roscovitine; parent: 8.
The next assay deals with NUP50 (endogenous, DT40). The experiment in a line: TrAP-tag pull-down and mass spectrometry. As to conditions: DT40 cells blocked in mitosis with colcemid, then forced to exit from mitosis by addition of roscovitine; parent: 17.
In another assay the target is PP1. The experiment in a line: TrAP-tag pull-down and mass spectrometry. The conditions noted are these: DT40 cells blocked in mitosis with colcemid, then forced to exit from mitosis by addition of roscovitine; parent: 18.

Substance “GFP:Repo-Man (from UniProt Q69YH5 1-1023) (natural protein)” gave an E FRET with H2B:mRFP of 22%.
“TrAP:hRepo-Man^WT (from UniProt Q69YH5) RVTF>RAXA (V>A; F>A in the RVTF motif, residue numbers not printed)”: the other: number of peptides identified by mass spectrometry with histone H2B was 14; with histone H3, 12; in assay [1], 35; in assay [2] it was 34; with NUP50 (endogenous, DT40), 17; in the assay with PP1, -0.
